{"source": "paper PMC3572051", "about": "“The Budding Yeast Cdc48^Shp1 Complex Promotes Cell Cycle Progression by Positive Regulation of Protein Phosphatase 1 (Glc7)” (PLoS ONE, 2013)", "binders": {"B1": {"name": "Glc7^3myc (enzyme, S. cerevisiae, UniProt P32598 1-312, looked up)", "chain": "MDSQPVDVDNIIDRLLEVRGSKPGQQVDLEENEIRYLCSKARSIFIKQPILLELEAPIKICGDIHGQYYDLLRLFEYGGFPPESNYLFLGDYVDRGKQSLETICLLLAYKIKYPENFFILRGNHECASINRIYGFYDECKRRYNIKLWKTFTDCFNCLPIAAIIDEKIFCMHGGLSPDLNSMEQIRRVMRPTDIPDVGLLCDLLWSDPDKDIVGWSENDRGVSFTFGPDVVNRFLQKQDMELICRAHQVVEDGYEFFSKRQLVTLFSAPNYCGEFDNAGAMMSVDESLLCSFQILKPAQKSLPRQAGGRKKK", "notes": "Glc7, catalytic subunit of protein phosphatase 1, S. cerevisiae; carboxyl-terminally tagged at its authentic chromosomal locus; also called PP1 catalytic subunit; source: S. cerevisiae DF5, expressed from the chromosomal GLC7 locus as sole source of Glc7, in lysate; not shown: 3myc, C-terminal, kept"}}, "molecular_target": "T1, Shp1^3HA (S. cerevisiae, UniProt P34223 1-423)", "T1 construct": "Shp1 (Ubx1), S. cerevisiae; source: S. cerevisiae DF5, chromosomal fusion SHP1^3HA::klTRP1, endogenous expression level, in lysate", "T1 sequence (looked up)": "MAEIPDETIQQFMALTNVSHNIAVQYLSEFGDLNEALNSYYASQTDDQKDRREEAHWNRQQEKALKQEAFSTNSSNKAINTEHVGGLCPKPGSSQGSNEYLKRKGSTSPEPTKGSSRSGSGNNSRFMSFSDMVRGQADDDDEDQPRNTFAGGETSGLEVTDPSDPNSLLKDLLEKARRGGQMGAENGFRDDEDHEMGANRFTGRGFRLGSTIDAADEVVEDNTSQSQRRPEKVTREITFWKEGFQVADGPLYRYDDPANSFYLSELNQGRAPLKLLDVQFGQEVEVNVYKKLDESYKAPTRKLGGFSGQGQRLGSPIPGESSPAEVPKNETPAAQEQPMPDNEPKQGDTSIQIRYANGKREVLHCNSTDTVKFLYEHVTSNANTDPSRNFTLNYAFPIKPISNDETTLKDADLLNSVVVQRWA", "assay": "co-IP; yeast lysates; immunoprecipitation with pre-coupled anti-HA antibody (overnight, 4°C), IP buffer 50 mM Tris/HCl pH 7.5, 100 mM KCl, 5 mM MgCl2, NP-40, 10% glycerol; Western blot; for Glc8^3HA lysates of asynchronous or α-factor-arrested wild-type and shp1-7 cells", "conditions": "partners not purified", "data": [{"binder": "B1", "values": [{"measurement": "fold difference of the Glc7 signal in the IP lane (relative to the heavy chain signal) against the negative control", "value": "> 8", "unit": "fold"}]}]}
